According to US20260116951A1:
pKd: −log10 of the molar value.

What was measured:
[1] = target: Recombinant Cyno CD200R, His-tagged (Creative Biomart CD200R1-3483C) (cynomolgus monkey); assay: SPR (BIAcore T200), CD200-Fc captured on anti-human Fc, cyno CD200R flowed, 25 C, 1:1 fit
[2] = target: Human CD200R, full length, on transduced U937 cells (U937-CD200R) (human) (UniProt Q8TD46); assay: cell-based or functional assay
[3] = target: Recombinant Human CD200R, His-tagged (Creative Biomart CD200R1-320H) (human) (UniProt Q8TD46); assay: SPR (BIAcore T200), CD200-Fc captured on anti-human Fc, CD200R flowed, 25 C, 1:1 fit
Sequence of Recombinant Human CD200R, His-tagged (Creative Biomart CD200R1-320H) (human) (Q8TD46 27-266 limits assumed): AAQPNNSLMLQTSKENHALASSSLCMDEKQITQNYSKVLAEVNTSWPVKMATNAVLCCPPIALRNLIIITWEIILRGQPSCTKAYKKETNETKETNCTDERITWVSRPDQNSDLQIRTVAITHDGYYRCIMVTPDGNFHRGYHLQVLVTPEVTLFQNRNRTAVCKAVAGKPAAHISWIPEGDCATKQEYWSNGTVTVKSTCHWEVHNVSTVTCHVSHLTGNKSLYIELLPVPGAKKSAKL

[4] = target: Recombinant Cyno CD200R, His-tagged (Creative Biomart CD200R1-3483C) (cynomolgus monkey); assay: SPR (BIAcore), DS-155 captured (0.5 ug/mL), CynoCD200R1 flowed at 1000 nM to 62.5 nM, 25 C, 1:1 Binding model, run 1
[5] = target: Recombinant Human CD200R, His-tagged (Creative Biomart CD200R1-320H) (human) (UniProt Q8TD46); assay: SPR, CD200R flowed over immobilized CD200-Fc, 25 C, 1:1 fit
[6] = target: Recombinant Cyno CD200R, His-tagged (Creative Biomart CD200R1-3483C) (cynomolgus monkey); assay: SPR, cyno CD200R1 flowed over immobilized CD200-Fc, 25 C, 1:1 fit, mean of 2 experiments with standard deviation
[7] = target: Recombinant Cyno CD200R, His-tagged (Creative Biomart CD200R1-3483C) (cynomolgus monkey); assay: SPR (BIAcore T200), CD200-Fc captured on anti-human Fc, cyno CD200R flowed, 25 C, 1:1 fit, mean of two runs
[8] = target: Recombinant Human CD200R, His-tagged (Creative Biomart CD200R1-320H) (human) (UniProt Q8TD46); assay: SPR, CD200R flowed over immobilized CD200-Fc, 25 C, 1:1 fit, mean of 2 experiments with standard deviation
[9] = target: Recombinant Human CD200R, His-tagged (Creative Biomart CD200R1-320H) (human) (UniProt Q8TD46); assay: SPR (BIAcore T200), CD200-Fc captured on anti-human Fc, CD200R flowed, 25 C, 1:1 fit, mean of two runs
[10] = target: Recombinant Human CD200R, His-tagged (Creative Biomart CD200R1-320H) (human) (UniProt Q8TD46); assay: SPR (BIAcore), DS-155 captured (0.5 ug/mL), HuCD200R1 flowed at 500 nM to 31.25 nM, 25 C, 1:1 Binding model, run 2
[11] = target: Recombinant Cyno CD200R, His-tagged (Creative Biomart CD200R1-3483C) (cynomolgus monkey); assay: SPR, cyno CD200R1 flowed over immobilized CD200-Fc, 25 C, 1:1 fit
[12] = target: Recombinant Human CD200R, His-tagged (Creative Biomart CD200R1-320H) (human) (UniProt Q8TD46); assay: SPR (BIAcore), DS-155 captured (0.5 ug/mL), HuCD200R1 flowed at 500 nM to 31.25 nM, 25 C, 1:1 Binding model, run 1
[13] = target: Recombinant Cyno CD200R, His-tagged (Creative Biomart CD200R1-3483C) (cynomolgus monkey); assay: SPR (BIAcore), DS-155 captured (0.5 ug/mL), CynoCD200R1 flowed at 1000 nM to 62.5 nM, 25 C, 1:1 Binding model, run 2

Sequence of Human CD200R, full length, on transduced U937 cells (U937-CD200R) (human) (Q8TD46 25-348): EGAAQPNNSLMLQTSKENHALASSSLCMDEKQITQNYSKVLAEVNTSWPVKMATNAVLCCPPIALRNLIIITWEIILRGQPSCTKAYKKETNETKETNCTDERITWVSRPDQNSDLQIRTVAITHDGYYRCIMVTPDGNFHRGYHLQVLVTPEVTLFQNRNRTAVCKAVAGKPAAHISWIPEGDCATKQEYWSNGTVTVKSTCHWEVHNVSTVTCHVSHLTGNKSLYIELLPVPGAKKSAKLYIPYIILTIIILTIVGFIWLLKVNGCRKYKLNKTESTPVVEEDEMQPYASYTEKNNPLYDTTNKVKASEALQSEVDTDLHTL

t½ [1]: 11.8 s
pKd [4]: 6.05
koff [4]: 0.0564 s⁻¹
kon [4]: 63500 M⁻¹ s⁻¹
pKd [6]: 6.01
pKd [7]: 6.01
koff [7]: 0.0586 s⁻¹
kon [7]: 60600 M⁻¹ s⁻¹
T1/2 [11]: 11.8 s
pKd [13]: 5.98
koff [13]: 0.0608 s⁻¹
kon [13]: 57600 M⁻¹ s⁻¹
Substance: DS-155 (wild-type human CD200-Fc, IgG4 S228P Fc) (from UniProt P41217 31-232) (Fc fusion)
inhibition of LPS stimulated IL-6 release from U937-CD200R cells, IC50 [2]: 0.18 mg/L
t½ [3]: 21.1 s
T1/2 [5]: 21.1 s
pKd [8]: 6.75
pKd [9]: 6.75
koff [9]: 0.0326 s⁻¹
kon [9]: 183000 M⁻¹ s⁻¹
pKd [10]: 6.74
kon [10]: 180000 M⁻¹ s⁻¹
pKd [12]: 6.76
koff [12]: 0.0324 s⁻¹
kon [12]: 186000 M⁻¹ s⁻¹
